Experimental data as given in PMC7924230, “Insights into the structure of mature streptavidin C1 from Streptomyces cinnamonensis reveal the self-binding of the extension C-terminal peptide to biotin-binding sites” (IUCrJ, 2021).

What was measured:
[1] = biological target: T1, streptavidin C1 (Streptomyces virginiae, UniProt A0ABQ3NKM7); assay: microscale thermophoresis (MST), His-tag-labelled protein; type: binding
T1 construct: ORF Met1-Glu191 in pET-21a, E. coli BL21; His-tagged (C1-His); mature N-terminus 34-SADPR-38; homotetramer about 76 kDa
T1 sequence (A0ABQ3NKM7 26-191 limits assumed): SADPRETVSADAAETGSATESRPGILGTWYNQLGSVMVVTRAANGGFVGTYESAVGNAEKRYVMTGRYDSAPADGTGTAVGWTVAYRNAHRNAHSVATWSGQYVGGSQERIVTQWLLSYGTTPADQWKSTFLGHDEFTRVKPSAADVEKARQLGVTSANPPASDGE

[2] = biological target: T2, streptavidin C2 (Streptomyces virginiae, UniProt A0ABQ3NKS0); assay: as above; type: binding; conditions: read-out: apparent K d
T2 construct: gene Scinn_28310; cloned in pET-21a, E. coli BL21; His-tagged (C2-His); homotetramer about 68 kDa

[3] = biological target: T3, avidin (Gallus gallus, UniProt P02701); assay: thermal unfolding, intrinsic fluorescence […] nm (Tycho NT.[…]); type: binding; conditions: PBS-T, 1 mg/ml protein, 4 mg/ml D-biotin
T3 construct: gene AVD; homotetramer
T3 sequence (P02701 25-152): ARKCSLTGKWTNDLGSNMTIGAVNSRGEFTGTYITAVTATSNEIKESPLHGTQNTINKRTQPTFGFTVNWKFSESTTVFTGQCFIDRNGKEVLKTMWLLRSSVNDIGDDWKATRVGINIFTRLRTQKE

[4] = biological target: streptavidin C1 from Streptomyces cinnamonensis strain KPP02129, recombinant mature form (Streptomyces cinnamonensis); assay: SEC-MALS; Superdex 200 10/300 GL, 20 mM Tris-HCl pH 8.0, 100 mM NaCl, 2 mM DTT; 1-2 mg/ml, 0.25 ml injected, 0.8 ml/min
[5] = biological target: streptavidin C1 from Streptomyces cinnamonensis strain KPP02129, recombinant mature form (Streptomyces cinnamonensis); assay: SDS-PAGE (oligomer bands); purified protein in 1x SDS sample buffer (1% SDS, with or without β-mercaptoethanol), incubated 20 min at 25-100°C, with or without biotin
[6] = biological target: streptavidin C2 from Streptomyces cinnamonensis strain KPP02129, recombinant (Streptomyces cinnamonensis); assay: SEC-MALS; Superdex 200 10/300 GL, 20 mM Tris-HCl pH 8.0, 100 mM NaCl, 2 mM DTT; 1-2 mg/ml, 0.25 ml injected, 0.8 ml/min
[7] = biological target: streptavidin C2 from Streptomyces cinnamonensis strain KPP02129, recombinant (Streptomyces cinnamonensis); assay: SDS-PAGE (oligomer bands); purified protein in 1x SDS sample buffer (1% SDS, with or without β-mercaptoethanol), incubated 20 min at 25-100°C, with or without biotin
[8] = biological target: C-terminal deletion mutant ΔC1 of streptavidin C1 (amino acids 1-161) (Streptomyces cinnamonensis); assay: MST; Monolith NT.115; 200 nM His-tag-labelled (RED-tris-NTA) ΔC1-His or ΔC2-His, unlabelled peptide 2.4414-80 000 nM, PBS with 0.05% Tween 20, 10 min at room temperature, measured at 25°C, 40% LED power, 60% MST power, triplicate
[9] = biological target: C-terminal deletion mutant ΔC2 of streptavidin C1 (amino acids 1-158) (Streptomyces cinnamonensis); assay: as above

In the case of `O=C(O)CCCC[C@@H]1SC[C@@H]2NC(=O)N[C@@H]21` [D-biotin], the Kd [1] is reported as about 0.00306 nM, the Kd [2] is reported as 0.00306 ± 0.0008 nM and the T i [3] is reported as “streptavidin (green) and avidin (brown) with or without biotin from differential scanning fluorimetry”.

“streptavidin C1 from Streptomyces cinnamonensis strain KPP02129, recombinant mature form (natural protein)” gave a stoichiometry N [4] of 4 and a stoichiometry N [5] of 4.

With “streptavidin C2 from Streptomyces cinnamonensis strain KPP02129, recombinant (natural protein)” the stoichiometry N [6] was 4 and the stoichiometry N [7] was 4.

LGVTSANPPASDGE [ECP peptide (extension C-terminal peptide) of streptavidin C1] was tested, and the Kd [8] was 49 nM and the Kd [9] was 110 nM.

Work on SAADVEKARQLGVTSANPPASDGE [C-Lid_ECP peptide of streptavidin C1] yielded a Kd [8] of 21000 nM and a Kd [9] of 7300 nM.
